Experiment [1] concerns the target protein phosphatase 1 (rabbit) (UniProt P62139).
The target is the same in experiment [2]. The source holds these as a separate data set.

UniProt P62139, sequence (P62139 whole entry): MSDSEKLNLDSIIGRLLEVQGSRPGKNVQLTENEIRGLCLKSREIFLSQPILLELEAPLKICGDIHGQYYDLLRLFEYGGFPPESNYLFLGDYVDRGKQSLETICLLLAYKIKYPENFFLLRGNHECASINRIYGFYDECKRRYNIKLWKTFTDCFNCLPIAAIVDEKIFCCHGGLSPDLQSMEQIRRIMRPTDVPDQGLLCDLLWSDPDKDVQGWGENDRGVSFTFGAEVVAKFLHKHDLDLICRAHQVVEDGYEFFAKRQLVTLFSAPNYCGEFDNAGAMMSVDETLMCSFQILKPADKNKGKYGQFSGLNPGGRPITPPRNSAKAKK

For glutathione conjugate of MCRR (peptide), the IC50 of inhibition of PP1 activity (inhibition curves, colorimetric protein phosphatase inhibition assay) in experiment [1] came out at 98.7 µM. For the same substance, the IC50 of inhibition of PP1 activity (colorimetric protein phosphatase inhibition assay, p-nitrophenyl disodium orthophosphate, 25.0°C, pH 7.4) in experiment [2] came to 98.7 μg/L.

Take glutathione conjugate of MCLR (peptide): the IC50 of inhibition of PP1 activity (inhibition curves, colorimetric protein phosphatase inhibition assay) in experiment [1] worked out at 86.6 µM. The substance further returned an IC50 of inhibition of PP1 activity (colorimetric protein phosphatase inhibition assay, p-nitrophenyl disodium orthophosphate, 25.0°C, pH 7.4) in experiment [2] of 86.6 μg/L.

(Values after paper PMC5350311.)
